The source of these data is patent US11278600B2, “Human alpha-galactosidase variants” (Codexis, Inc., priority 2014, dated 2022).

Common to all, as to assay type: biochemical
The nature of data set [1]: HTP-analysis of supernatants pretreated with base (MUGal hydrolysis). The settings on record: activity of the variant/activity of Rd4BB (SEQ ID NO: 15); challenge at pH 9.65. The essentials: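 GLA variants were secreted by transformed INVSc1 yeast grown 66-84 h at 30° C. Supernatants were exposed to neutral-to-basic buffers (pH 7.0-9.7) at 37° C for 1-18 h, then assayed with MUGal in acidic citrate/McIlvaine buffer, with fluorescence read after quenching.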

A short description of data set [2]: HTP-analysis of supernatants pretreated with acid (MUGal hydrolysis). The settings on record: activity of the variant/activity of Rd4BB (SEQ ID NO: 15); challenge at pH 3.7. In outline: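 Fluorescence of MUGal hydrolysis (Ex. 355 nm, Em. 448 nm) is read after sodium carbonate quench. The enzyme source is INVSc1 yeast culture supernatant, first exposed to pH 3.3-4.3 McIlvaine buffer at 37° C. for 1-3 h, then reacted at pH 4.8 for 30-180 minutes.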

Data set [3] is described as follows: HTP-analysis of yeast culture supernatants, no challenge (MUGal hydrolysis). The note with it: activity of the variant/activity of Rd4BB (SEQ ID NO: 15). The essentials: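 GLA variants were expressed in INVSc1 yeast grown in SD-Ura broth with glucose at 30° C., and culture supernatants were collected after 66-84 h. Supernatant was mixed with McIlvaine buffer pH 4.8 and MUGal (2 mM stock) in 50 mM citrate, 200 mM KCl, pH 4.6, incubated at 37° C. for 30-180 minutes, then quenched with sodium carbonate.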

B1: 446 (protein)
chain: LDNGLARTPTMGWLHWERFMCNLDCQEEPDSCISEKLFMEMAERMVSEGWKDAGYEYLCIDDCWMAPQRDSEGRLQADPQRFPHGIRQLANYVHSKGLKLGIYADVGNKTCAGFPGSFGYYDIDAQTFADWGVDLLKFDGCYCDSLENLADGYKHMSLALNRTGRSIVYSCEWPLYMWPFQKPNYTEIRQYCNHWRNFADIDDSWKSIKSILDWTSRNQERIVDVAGPGGWNDPDMLVIGNFGLSWDQQVTQMALWAIAAAPLFMSNDLRHISPQAKALLQDKDVIAINQDPLGKQGYQLRKGDNFEVWERPLSGDAWAVAIINRQEIGGPRSYTIPVASLGKGVACNPACFITQLLPVKRQLGFYNWTSRLKSHINPTGTVLLQLENTMQMSLKDLL
modifications: Synthetic Polypeptide sequence of Variant No. 446 of mature Human GLA
In the case of B1, the “Relative Activity of GLA Variants After Challenge at pH 9.65” value (from here on “Relative Activity … at pH 9.65”) in data set [1] is given as “− (<0.5 relative activity over Rd4BB (SEQ ID NO: 15))”. Also, the “Relative Activity of GLA Variants After Challenge at pH 3.7” value (“Relative Activity … at pH 3.7” below) in data set [2] was “− (<0.5 relative activity over Rd4BB (SEQ ID NO: 15))”. Further, in data set [3], the “Relative Activity of GLA Variants After No Challenge (NC)” value is recorded as “+ (0.5 to 1.5 relative activity over Rd4BB (SEQ ID NO: 15))”.

B2: 450 (protein)
chain: LDNGLARTPTMGWLHWERFMCNLDCQEEPDSCISEKLFMEMAERMVSEGWKDAGYEYLCIDDCWMAPQRDSEGRLQADPQRFPHGIRQLANYVHSKGLKLGIYADVGNKTCAGFPGSFGYYDIDAQTFADWGVDLLKFDGCYCDSLENLADGYKHMSLALNRTGRSIVYSCEWPLYMWPFQKPNYTEIRQYCNHWRNFADIDDSWKSIKSILDWTSRNQERIVDVAGPGGWNDPDMLVIGNFGLSWDQQVTQMALWAMMAAPLFMSNDLRHISPQAKALLQDKDVIAINQDPLGKQGYQLRKGDNFEVWERPLSGDAWAVAIINRQEIGGPRSYTIPVASLGKGVACNPACFITQLLPVKRQLGFYNWTSRLKSHINPTGTVLLQLENTMQMSLKDLL
modifications: Synthetic Polypeptide sequence of Variant No. 450 of mature Human GLA
Take B2: the “Relative Activity … at pH 9.65” value in data set [1] is recorded as “− (<0.5 relative activity over Rd4BB (SEQ ID NO: 15))”. Further, the “Relative Activity … at pH 3.7” value in data set [2] is reported as “++ (>1.5 to 2.5 relative activity over Rd4BB (SEQ ID NO: 15))”. Also, in data set [3], the “Relative Activity of GLA Variants After No Challenge (NC)” value is listed as “+ (0.5 to 1.5 relative activity over Rd4BB (SEQ ID NO: 15))”.

B3: 448 (protein)
chain: LDNGLARTPTMGWLHWERFMCNLDCQEEPDSCISEKLFMEMAERMVSEGWKDAGYEYLCIDDCWMAPQRDSEGRLQADPQRFPHGIRQLANYVHSKGLKLGIYADVGNKTCAGFPGSFGYYDIDAQTFADWGVDLLKFDGCYCDSLENLADGYKHMSLALNRTGRSIVYSCEWPLYMWPFQKPNYTEIRQYCNHWRNFADIDDSWKSIKSILDWTSRNQERIVDVAGPGGWNDPDMLVIGNFGLSWDQQVTQMALWAIMAAPLFMSNDLQHISPQAKALLQDKDVIAINQDPLGKQGYQLRKGDNFEVWERPLSGDAWAVAIINRQEIGGPRSYTIPVASLGKGVACNPACFITQLLPVKRQLGFYNWTSRLKSHINPTGTVLLQLENTMQMSLKDLL
modifications: Synthetic Polypeptide sequence of Variant No. 448 of mature Human GLA
In the case of B3, in data set [1], the “Relative Activity … at pH 9.65” value is “− (<0.5 relative activity over Rd4BB (SEQ ID NO: 15))”. In addition, the “Relative Activity … at pH 3.7” value in data set [2] is “− (<0.5 relative activity over Rd4BB (SEQ ID NO: 15))”. In data set [3], the “Relative Activity of GLA Variants After No Challenge (NC)” value is “+ (0.5 to 1.5 relative activity over Rd4BB (SEQ ID NO: 15))”.

B4: 451 (protein)
chain: LDNGLARTPTMGWLHWERFMCNLDCQEEPDSCISEKLFMEMAERMVSEGWKDAGYEYLCIDDCWMAPQRDSEGRLQADPQRFPHGIRQLANYVHSKGLKLGIYADVGNKTCAGFPGSFGYYDIDAQTFADWGVDLLKFDGCYCDSLENLADGYKHMSLALNRTGRSIVYSCEWPLYMWPFQKPNYTEIRQYCNHWRNFADIDDSWKSIKSILDWTSRNQERIVDVAGPGGWNDPDMLVIGNFGLSWDQQVTQMALWAIVAAPLFMSNDLRHISPQAKALLQDKDVIAINQDPLGKQGYQLRKGDNFEVWERPLSGDAWAVAIINRQEIGGPRSYTIPVASLGKGVACNPACFITQLLPVKRQLGFYNWTSRLKSHINPTGTVLLQLENTMQMSLKDLL
modifications: Synthetic Polypeptide sequence of Variant No. 451 of mature Human GLA
Take B4: the “Relative Activity … at pH 9.65” value in data set [1] is recorded as “− (<0.5 relative activity over Rd4BB (SEQ ID NO: 15))”. In data set [2], the “Relative Activity … at pH 3.7” value was “++ (>1.5 to 2.5 relative activity over Rd4BB (SEQ ID NO: 15))”. In data set [3], the “Relative Activity of GLA Variants After No Challenge (NC)” value was “+ (0.5 to 1.5 relative activity over Rd4BB (SEQ ID NO: 15))”.

B5: 447 (protein)
chain: LDNGLARTPTMGWLHWERFMCNLDCQEEPDSCISEKLFMEMAERMVSEGWKDAGYEYLCIDDCWMAPQRDSEGRLQADPQRFPHGIRQLANYVHSKGLKLGIYADVGNKTCAGFPGSFGYYDIDAQTFADWGVDLLKFDGCYCDSLENLADGYKHMSLALNRTGRSIVYSCEWPLYMWPFQKPNYTEIRQYCNHWRNFADIDDSWKSIKSILDWTSRNQERIVDVAGPGGWNDPDMLVIGNFGLSWDQQVTQMALWAIMAAPWFMSNDLRHISPQAKALLQDKDVIAINQDPLGKQGYQLRKGDNFEVWERPLSGDAWAVAIINRQEIGGPRSYTIPVASLGKGVACNPACFITQLLPVKRQLGFYNWTSRLKSHINPTGTVLLQLENTMQMSLKDLL
modifications: Synthetic Polypeptide sequence of Variant No. 447 of mature Human GLA
Consider B5, for which, in data set [1], the “Relative Activity … at pH 9.65” value is reported as “− (<0.5 relative activity over Rd4BB (SEQ ID NO: 15))”. In data set [2], the “Relative Activity … at pH 3.7” value is listed as “− (<0.5 relative activity over Rd4BB (SEQ ID NO: 15))”. Further, the “Relative Activity of GLA Variants After No Challenge (NC)” value in data set [3] is listed as “+ (0.5 to 1.5 relative activity over Rd4BB (SEQ ID NO: 15))”.

B6: 452 (protein)
chain: LDNGLARTPTMGWLHWERFMCNLDCQEEPDSCISEKLFMEMAERMVSEGWKDAGYEYLCIDDCWMAPQRDSEGRLQADPQRFPHGIRQLANYVHSKGLKLGIYADVGNKTCAGFPGSFGYYDIDAQTFADWGVDLLKFDGCYCDSLENLADGYKHMSLALNRTGRSIVYSCEWPLYMWPFQKPNYTEIRQYCNHWRNFADIDDSWKSIKSILDWTSRNQERIVDVAGPGGWNDPDMLVIGNFGLSWDQQVTQMALWAIMAAPLFMSNDLRRISPQAKALLQDKDVIAINQDPLGKQGYQLRKGDNFEVWERPLSGDAWAVAIINRQEIGGPRSYTIPVASLGKGVACNPACFITQLLPVKRQLGFYNWTSRLKSHINPTGTVLLQLENTMQMSLKDLL
modifications: Synthetic Polypeptide sequence of Variant No. 452 of mature Human GLA
Regarding B6, the “Relative Activity … at pH 9.65” value in data set [1] was “+ (0.5 to 1.5 relative activity over Rd4BB (SEQ ID NO: 15))”. For the same molecule, the “Relative Activity … at pH 3.7” value in data set [2] is “++ (>1.5 to 2.5 relative activity over Rd4BB (SEQ ID NO: 15))”. Further, the “Relative Activity of GLA Variants After No Challenge (NC)” value in data set [3] is listed as “+ (0.5 to 1.5 relative activity over Rd4BB (SEQ ID NO: 15))”.

B7: 366 (protein)
chain: LDNGLARTPTMGWLHWERFMCNLDCQEEPDSCISEKLFMEMAERMVVEGWKDAGYEYLCIDDCWMAPQRDSEGRLQADPQRFPHGIRQLANYVHSKGLKLGIYADVGNKTCAGFPGSFGYYDIDAQTFADWGVDLLKFDGCYCDSLENLADGYKHMSLALNRTGRSIVYSCEWPLYMWPFQKPNYTEIRQYCNHWRNFADIDDSWKSIKSILDWTSRNQERIVDVAGPGGWNDPDMLVIGNFGLSWDQQVTQMALWAIMAAPLFMSNDLRHISPQAKALLQDKDVIAINQDPLGKQGYQLRKGDNFEVWERPLSGDAWAVAIINRQEIGGPRSYTIPVASLGKGVACNPACFITQLLPVKRQLGFYNWTSRLKSHINPTGTVLLQLENTMQMSLKDLL
modifications: Synthetic Polypeptide sequence of Variant No. 366 of mature Human GLA
Take B7: the “Relative Activity … at pH 9.65” value in data set [1] is listed as “+ (0.5 to 1.5 relative activity over Rd4BB (SEQ ID NO: 15))”. In data set [2], the “Relative Activity … at pH 3.7” value is listed as “+ (0.5 to 1.5 relative activity over Rd4BB (SEQ ID NO: 15))”. The “Relative Activity of GLA Variants After No Challenge (NC)” value in data set [3] is “+ (0.5 to 1.5 relative activity over Rd4BB (SEQ ID NO: 15))”.

B8: 449 (protein)
chain: LDNGLARTPTMGWLHWERFMCNLDCQEEPDSCISEKLFMEMAERMVSEGWKDAGYEYLCIDDCWMAPQRDSEGRLQADPQRFPHGIRQLANYVHSKGLKLGIYADVGNKTCAGFPGSFGYYDIDAQTFADWGVDLLKFDGCYCDSLENLADGYKHMSLALNRTGRSIVYSCEWPLYMWPFQKPNYTEIRQYCNHWRNFADIDDSWKSIKSILDWTSRNQERIVDVAGPGGWNDPDMLVIGNFGLSWDQQVTQMATWAIMAAPLFMSNDLRHISPQAKALLQDKDVIAINQDPLGKQGYQLRKGDNFEVWERPLSGDAWAVAIINRQEIGGPRSYTIPVASLGKGVACNPACFITQLLPVKRQLGFYNWTSRLKSHINPTGTVLLQLENTMQMSLKDLL
modifications: Synthetic Polypeptide sequence of Variant No. 449 of mature Human GLA
On to B8, for which, in data set [1], the “Relative Activity … at pH 9.65” value is given as “− (<0.5 relative activity over Rd4BB (SEQ ID NO: 15))”. Also, the “Relative Activity … at pH 3.7” value in data set [2] was “++ (>1.5 to 2.5 relative activity over Rd4BB (SEQ ID NO: 15))”. Moreover, the “Relative Activity of GLA Variants After No Challenge (NC)” value in data set [3] is “+ (0.5 to 1.5 relative activity over Rd4BB (SEQ ID NO: 15))”.
